How the values were obtained:
[1] = biological target: peptide 4 variant V374A expressed by HEK293T cells (human); test: western blot, relative to WT
[2] = biological target: peptide 4 variant G365A expressed by HEK293T cells (human); test: western blot, relative to WT
[3] = biological target: peptide 4 variant W370A expressed by HEK293T cells (human); test: western blot, relative to WT
[4] = biological target: peptide 4 variant A371G expressed by HEK293T cells (human); test: western blot, relative to WT
[5] = biological target: peptide 4 variant D369A expressed by HEK293T cells (human); test: western blot, relative to WT
[6] = biological target: peptide 4 variant R367A expressed by HEK293T cells (human); test: western blot, relative to WT
[7] = biological target: peptide 4 WT expressed by HEK293T cells (human); test: western blot, relative to WT
[8] = biological target: peptide 4 variant I372A expressed by HEK293T cells (human); test: western blot, relative to WT
[9] = biological target: peptide 4 variant T368A expressed by HEK293T cells (human); test: western blot, relative to WT
[10] = biological target: peptide 4 variant V362A expressed by HEK293T cells (human); test: western blot, relative to WT
[11] = biological target: peptide 4 variant G373A expressed by HEK293T cells (human); test: western blot, relative to WT
[12] = biological target: peptide 4 variant E363A expressed by HEK293T cells (human); test: western blot, relative to WT
[13] = biological target: peptide 4 variant C375A expressed by HEK293T cells (human); test: western blot, relative to WT
[14] = biological target: TRIM variant expressed by HEK293T cells; test: western blot, relative to WT
[15] = biological target: peptide 4 variant V364A expressed by HEK293T cells (human); test: western blot, relative to WT
[16] = biological target: peptide 4 variant E361A expressed by HEK293T cells (human); test: western blot, relative to WT
[17] = biological target: peptide 4 variant D366A expressed by HEK293T cells (human); test: western blot, relative to WT
[18] = biological target: T1, hBTN1A1 ICD (human, UniProt Q13410 270-526); test: ELISA, 10X dilution
T1 sequence: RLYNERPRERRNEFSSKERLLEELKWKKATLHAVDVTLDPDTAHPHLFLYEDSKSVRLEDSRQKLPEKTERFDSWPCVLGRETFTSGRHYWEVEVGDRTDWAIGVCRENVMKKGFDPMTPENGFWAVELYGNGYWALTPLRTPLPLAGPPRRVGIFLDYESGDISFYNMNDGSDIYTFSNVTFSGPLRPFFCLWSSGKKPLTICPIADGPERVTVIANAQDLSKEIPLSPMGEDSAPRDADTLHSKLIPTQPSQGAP

[19] = biological target: T2, BTN1A1 Peptide 4 (human); test: ELISA, 10X dilution
T2 construct: also called BTN1A1-pep4- WT; Pep4
T2 peptide: EVEVGDRTDWAIGVC

[20] = biological target: T3, denatured hBTN1A1 ICD (human, UniProt Q13410 270-526); test: ELISA, 10X dilution
T3 construct: Same protein as hBTN1A1 ICD, denatured before the ELISA; also called hBTN1A1 ICD denatured; Denatured ICD
T3 sequence: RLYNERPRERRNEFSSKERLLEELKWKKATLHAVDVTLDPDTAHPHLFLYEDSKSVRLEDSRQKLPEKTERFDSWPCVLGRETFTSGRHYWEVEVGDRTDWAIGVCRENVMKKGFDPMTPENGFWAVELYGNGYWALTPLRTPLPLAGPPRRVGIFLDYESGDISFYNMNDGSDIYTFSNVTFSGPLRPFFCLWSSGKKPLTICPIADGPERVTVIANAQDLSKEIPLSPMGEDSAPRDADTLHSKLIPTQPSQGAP

[21] = biological target: T1, hBTN1A1 ICD; test: ELISA, stock solution
[22] = biological target: T2, BTN1A1 Peptide 4; test: ELISA, stock solution
[23] = biological target: T3, denatured hBTN1A1 ICD; test: ELISA, stock solution

B1: STC43H11-1 (antibody, V domains shown)
VH: QSLEESGGRLVTPGGSLTLTCTVSGIDLSSYAMGWVRQAPGEGLEWIGSIGTGGGTGYASWAKGRFTISKTSTTVDLKMTSLTASDTATYFCATSNLWGPGTLVTVSS
VL: QVLTQTASPVSAAVGGTVTINCQASQSVYNNNRCSWFQQKPGQPPKRLIYHTSTLDSGVPSRFKGSGSGTQFTLTISDVQCDDAATYYCLGNYDCSRADCAAFGGGTEVVVK
notes: From immunized New Zealand rabbits; IgG heavy chain and Kappa light chain; also called clone #43H11; Clone 43H11
In the case of B1, the % binding Rel. Quant. [1] is reported as 49.6%, the % binding Rel. Quant. [2] is reported as 86.8% and the % binding Rel. Quant. [3] is reported as 8.25%. It also gave a % binding Rel. Quant. [4] of 9.41%, a % binding Rel. Quant. [5] of 0.178% and a % binding Rel. Quant. [6] of 50.1%. For the same binder, the % binding Rel. Quant. [7] was 100%, the % binding Rel. Quant. [8] was 0.127% and the % binding Rel. Quant. [9] was 10.4%. The % binding Rel. Quant. [10] was 247%, the % binding Rel. Quant. [11] was 2.25% and the % binding Rel. Quant. [12] was 67.6%. It also gave a % binding Rel. Quant. [13] of 277%, a % binding Rel. Quant. [14] of -0.213% and a % binding Rel. Quant. [15] of 26.8%. The % binding Rel. Quant. [16] was 48.3%, the % binding Rel. Quant. [17] was -8.55% and the ELISA signal [18] was 2.96. It also gave an ELISA signal [19] of 2.83, an ELISA signal [20] of 2.9 and an ELISA signal [21] of 2.93. It also gave an ELISA signal [22] of 2.88 and an ELISA signal [23] of 2.87.

From patent US20250189530A1 (STCUBE, published 2025)
